EP4793287A1, “TUMOR MICROENVIRONMENT SPECIFICALLY ACTIVATED CD47 ANTIBODY” (Affinity (Shanghai) Biopharmaceutical Co., Ltd., priority 2023, dated 2025)

Key:
Raji cells [1] = assay: FACS binding of CD47 antibody to Raji cells
Method: The required cell line, Raji (cultured in RPMI-1640 (ATCC Modification, Gibco, Cat# A10491-01) + 10% FBS (BI, Cat# 04-001-1A) + 1× P/S), was expanded to the logarithmic phase. Cells were collected and pipetted to create a single-cell suspension, followed by centrifugation and removal of the supernatant. The cells were resuspended in FACS buffer (PBS + 2% FBS) and counted, and the cell density was adjusted to 2×10^6/ml. 100 µl/well of this suspension was added to a 96-well plate (Corning, Cat# 3799). After centrifugation and removal of the supernatant, 100 µl/well of the antibody sample to be tested (initial concentration of 100 nM, 5-fold gradient dilutions) was added, mixed with the cells, and incubated at 4 °C for 1 hour. Cells were washed by centrifugation with FACS buffer for three times, then added with 100 µl/well of Goat anti-Human IgG Fc Secondary Antibody, PE (eBioscience™, Invitrogen, Cat# 12-4998-82, 1:200 dilution) and incubated at 4 °C for 1 hour. After three washes with FACS buffer by centrifugation, the cells were resuspended in 200 µl/well of FACS buffer and analyzed using FACS (BECKMAN COULTER, CytoFLEX). Data were fitted and the results were analyzed using software (GraphPad Prism 8).

Raji cells [2] = assay: ADCC assay with PBMCs, LDH detection; assay type: cell-based
Method: Raji cells (cultured in RPMI-1640 (ATCC Modification, Gibco, Cat# A10491-01) + 10% FBS (BI, Cat# 04-001-1A) + 1× P/S) were expanded to the logarithmic phase. Cells were collected and pipetted to create a single-cell suspension. After centrifugation, the supernatant was discarded, and the cells were resuspended in culture medium, counted, and the cell density was adjusted to 2×10^5/ml. 50 µl/well of this suspension was added to a 96-well cell culture plate (Corning, Cat# 3599) and incubated overnight at 37°C in a 5% CO2 atmosphere. PBMCs (XF, Cat# XC11100W) were resuspended in 10% FBS-RPMI1640 medium. After centrifugation, the supernatant was discarded, and the cell density was adjusted to 8×10^6/ml. 50 µl/well of the antibody to be tested and 50 µl of the PBMC suspension (E:T ratio of […]) were added to the culture plate. The plate was placed in a CO2 incubator and incubated for 24 hours. The ADCC assay was performed using an LDH detection kit (Cytotoxicity Detection KitPLUS (LDH), Roche, Cat# 4744934001).

[3] = tested on: Human small cell lung cancer SHP-77 cells; assay: In vivo efficacy, subcutaneous SHP-77 tumor model (Example 11); parameters: species or system CB17-SCID mice; conditions: for T/C ratio / TGI inhibition rate: after 38 days of treatment
Method: Human small cell lung cancer SHP-77 cells were subcutaneously transplanted into CB17-SCID mice to establish an in vivo model. SHP-77 cells were cultured according to standard culture conditions and were collected during the exponential growth phase for counting. Each mouse was inoculated on the right flank with 2.5×10^6 human small cell lung cancer SHP-77 cells (suspended in 0.1 ml of basal medium). After inoculation, when the tumors grew to 60-103 mm^3 (5 days post-tumor implantation), the mice were randomly grouped based on body weight and tumor volume. The experimental groups were divided as follows:
Treatment was started on the day of grouping. Mice were weighed, and tumor volumes were measured twice a week. Tumor volume was calculated using the formula: tumor volume = 1/2 × length × width × width (mm^3). The tumor growth inhibition rate TGI (%) was calculated as [1 - (Tt - T0) / (Ct - C0)] × 100%. The tumor inhibition rate T/C (%) was calculated as (Tt/T0) / (Ct/C0) × 100%. T0 represents the tumor volume of the test antibody group at the time of grouping; Tt represents the tumor volume of the test antibody group at each measurement; C0 represents the average tumor volume of the PBS group at the time of grouping; Ct represents the average tumor volume of the PBS group at each measurement.

B1: CD47 TMEAbody: CD47 TMEAbody conjugated with PEG of approximately 20K molecular weight (i.e., PEG20K) (conjugate)
VH: QQQLEESGGGLVKPEGSLTLTCTASGFSFSSGYDMCWVRQAPGRGLEWIACIYTRSSGGTCYASWAKGRFTISKTSSTVDLRMTSLTAADTATYFCAGGRSSYRLNLWGQGALVTVSS
VL: DVVMTQTPSPVEAAVGGTVTIKCQASQSISNELSWYQQKPGQPPKLLIYRASTLESGVSSRFKGSGSGTEFTLTISDLECADAATYYCQSTFYGDYGNAFGGGTEVVVK
Raji cells [1]
  binding to Raji cells lower compared to 70H1: approximately 60 fold
Raji cells [2]; ADCC, E:T ratio of 20:1, 24 hours
  EC50: 16.3 nM
Raji cells [2]; after the CD47 TMEAbody was activated
  ADCC activity: restored
Raji cells [2]; not activated, compared to the 70H1 antibody
  ADCC activity: lost its ADCC activity
[3]; 0.3 mg/kg, D0
  Tumor Volume: 79.15 mm^3
[3]; 0.3 mg/kg, D3
  Tumor Volume: 63.51 mm^3
[3]; 0.3 mg/kg, D7
  Tumor Volume: 44.29 mm^3
[3]; 0.3 mg/kg, D10
  Tumor Volume: 42.63 mm^3
[3]; 0.3 mg/kg, D14
  Tumor Volume: 42.49 mm^3
[3]; 0.3 mg/kg, D17
  Tumor Volume: 44.81 mm^3
[3]; 0.3 mg/kg, D21
  Tumor Volume: 74.08 mm^3
[3]; 0.3 mg/kg, D24
  Tumor Volume: 116.17 mm^3
[3]; 0.3 mg/kg, D28
  Tumor Volume: 142.04 mm^3
[3]; 0.3 mg/kg, D31
  Tumor Volume: 194.29 mm^3
[3]; 0.3 mg/kg, D35
  Tumor Volume: 272.39 mm^3
[3]; 0.3 mg/kg, D38
  Tumor Volume: 373.67 mm^3
[3]; 0.3 mg/kg
  T/C ratio: 29.52%
  TGI inhibition rate: 75.38%
[3]; 1 mg/kg, D0
  Tumor Volume: 79.75 mm^3
[3]; 1 mg/kg, D3
  Tumor Volume: 69.70 mm^3
[3]; 1 mg/kg, D7
  Tumor Volume: 47.94 mm^3
[3]; 1 mg/kg, D10
  Tumor Volume: 36.61 mm^3
[3]; 1 mg/kg, D14
  Tumor Volume: 32.95 mm^3
[3]; 1 mg/kg, D17
  Tumor Volume: 20.93 mm^3
[3]; 1 mg/kg, D21
  Tumor Volume: 19.98 mm^3
[3]; 1 mg/kg, D24
  Tumor Volume: 27.75 mm^3
[3]; 1 mg/kg, D28
  Tumor Volume: 17.69 mm^3
[3]; 1 mg/kg, D31
  Tumor Volume: 21.42 mm^3
[3]; 1 mg/kg, D35
  Tumor Volume: 15.37 mm^3
[3]; 1 mg/kg, D38
  Tumor Volume: 14.44 mm^3
[3]; 1 mg/kg
  T/C ratio: 1.13%
  TGI inhibition rate: 105.46%
[3]; 3 mg/kg, D0
  Tumor Volume: 79.00 mm^3
[3]; 3 mg/kg, D3
  Tumor Volume: 65.86 mm^3
[3]; 3 mg/kg, D7
  Tumor Volume: 44.80 mm^3
[3]; 3 mg/kg, D10
  Tumor Volume: 33.94 mm^3
[3]; 3 mg/kg, D14
  Tumor Volume: 27.48 mm^3
[3]; 3 mg/kg, D17
  Tumor Volume: 24.62 mm^3
[3]; 3 mg/kg, D21
  Tumor Volume: 9.14 mm^3
[3]; 3 mg/kg, D24
  Tumor Volume: 13.52 mm^3
[3]; 3 mg/kg, D28
  Tumor Volume: 10.79 mm^3
[3]; 3 mg/kg, D31
  Tumor Volume: 17.13 mm^3
[3]; 3 mg/kg, D35
  Tumor Volume: 14.44 mm^3
[3]; 3 mg/kg, D38
  Tumor Volume: 12.85 mm^3
[3]; 3 mg/kg
  T/C ratio: 1.02%
  TGI inhibition rate: 105.53%
[3]; 0.3-3 mg/kg
  tumor growth inhibition: significant tumor growth inhibition
[3]; during the treatment period
  changes in body weight: No significant changes in body weight
